Numbering of substitutions follows the chain as printed.
T1: Human MAGEB2 (Melanoma-associated antigen B2) (human, UniProt O15479 1-319)
T1 construct: Intracellular antigen detected by IHC in FFPE material: CHO cells transfected with human MAGEB2 (mCherry vector with Myc/DDK tags, or ORF without tags)
T1 sequence: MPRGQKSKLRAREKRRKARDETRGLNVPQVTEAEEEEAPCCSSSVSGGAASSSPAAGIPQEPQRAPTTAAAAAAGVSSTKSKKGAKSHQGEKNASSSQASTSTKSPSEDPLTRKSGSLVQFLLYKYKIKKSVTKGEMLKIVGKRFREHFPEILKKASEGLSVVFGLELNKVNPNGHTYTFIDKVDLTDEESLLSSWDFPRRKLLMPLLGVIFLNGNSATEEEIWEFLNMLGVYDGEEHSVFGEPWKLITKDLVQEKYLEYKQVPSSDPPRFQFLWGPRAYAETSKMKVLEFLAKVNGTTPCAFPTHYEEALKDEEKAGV

T2: human MAGEB6 (human, UniProt Q8N7X4 1-407)
T2 construct: whole, on cells; FFPE cell pellets
T2 sequence (looked up): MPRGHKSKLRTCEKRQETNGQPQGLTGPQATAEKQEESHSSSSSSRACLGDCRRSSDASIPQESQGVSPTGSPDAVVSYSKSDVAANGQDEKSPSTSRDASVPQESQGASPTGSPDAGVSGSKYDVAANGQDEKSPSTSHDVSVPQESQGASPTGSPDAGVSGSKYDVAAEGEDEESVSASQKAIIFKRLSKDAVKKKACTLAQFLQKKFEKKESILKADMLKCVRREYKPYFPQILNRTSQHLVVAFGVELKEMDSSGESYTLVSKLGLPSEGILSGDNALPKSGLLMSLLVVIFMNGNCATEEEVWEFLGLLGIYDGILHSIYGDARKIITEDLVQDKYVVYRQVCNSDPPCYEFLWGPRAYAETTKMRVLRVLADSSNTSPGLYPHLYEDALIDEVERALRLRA

T3: human MAGEA11 (human, UniProt P43364 1-429)
T3 construct: whole, on cells; Transfected into CHO cells with Myc/DDK tags
T3 sequence (looked up): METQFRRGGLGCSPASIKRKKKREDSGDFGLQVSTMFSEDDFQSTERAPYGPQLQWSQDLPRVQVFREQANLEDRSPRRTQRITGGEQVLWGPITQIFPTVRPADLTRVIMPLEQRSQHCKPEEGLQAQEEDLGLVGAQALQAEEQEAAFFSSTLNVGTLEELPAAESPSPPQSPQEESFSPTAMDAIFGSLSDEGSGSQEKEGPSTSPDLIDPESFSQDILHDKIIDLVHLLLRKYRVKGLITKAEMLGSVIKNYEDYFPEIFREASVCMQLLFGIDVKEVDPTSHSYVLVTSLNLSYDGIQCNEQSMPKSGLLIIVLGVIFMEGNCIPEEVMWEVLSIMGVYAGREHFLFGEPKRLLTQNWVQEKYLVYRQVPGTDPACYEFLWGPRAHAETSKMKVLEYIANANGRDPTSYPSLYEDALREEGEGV

T4: human MAGEB17 (human, UniProt A8MXT2 1-336)
T4 construct: whole, on cells; FFPE cell pellets; also called MAGE-17
T4 sequence (looked up): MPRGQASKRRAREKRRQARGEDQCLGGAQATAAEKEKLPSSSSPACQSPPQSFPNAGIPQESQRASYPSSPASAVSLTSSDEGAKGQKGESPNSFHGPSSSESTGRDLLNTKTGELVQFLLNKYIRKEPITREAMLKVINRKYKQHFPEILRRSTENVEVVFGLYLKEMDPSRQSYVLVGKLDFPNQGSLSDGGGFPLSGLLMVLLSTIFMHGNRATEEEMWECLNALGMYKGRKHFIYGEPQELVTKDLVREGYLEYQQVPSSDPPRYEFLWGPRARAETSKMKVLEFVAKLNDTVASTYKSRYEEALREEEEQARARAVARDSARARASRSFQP

B1: 1I14 (antibody, V domains shown)
VH: QSVEESGGRLVTPGTPLTLTCTISGFSLSSYAMSWVRQAPGKGLEWIGSIGGGGSAVYASWAKGRFTISKTSTTVDLRITSPTTEDTAMYFCGRGFYSIDLWGPGTLVTVSS
VL: DVVMTQTPASVEATVGGTVTIKCQSSQSVYDNNALAWYQQNAGQRPRLLIYGASTLASGVPSRFSASGSGTEFTLTISDLECADAATYYCQCTYYVSSYQNDFGGGTEVVVKG
notes: also called MAGE-B2 (1i14)
B2: 1C3 (antibody, V domains shown)
VH: QSLEESGGGLVQPEGSLTLTCTAFGVTLTNYYICWVRQAPGKGLEWVGCIDNANGRTYYASWAKGRFTISKTSSTTGTLQMTSLTAADTATYFCARSLATPLWGPGTLVTVSS
VL: DIVMTQTPSSVEAAVGGTVTIKCQASQNISSYLAWYQQKPGQPPKLLIYRASTLASGVPSRFKGSGSGTQFTLTISDLECADAATYYCQSYDDSRSSNFFYAFGGGTEVVVKG
notes: also called MAGE-B2 (IC3); anti-MAGEB2 antibody 1C3
B3: 4G17 (antibody, IgG1, V domains shown)
VH: B2 VH with F24S, T29S, V47I, A53V
VL: DIVMTQTPASVEAAVGGTVTIKCQASQNIDSYLAWYQQKPGQPPKLLIYRASTLASGVPSRFKGSGSGTEFTLTISDLECADAATYYCQSYDDSRSSSFFYGFGGGTEVVVK
notes: Rabbit monoclonal IgG1; Tested as supernatant and as small batch purified antibody; also called MAGE-B2 (4G17); anti-MAGEB2 antibody 4G17
B4: 1J15 (antibody, IgG1, V domains shown)
VH: B2 VH with V26F, T29N, V47I, G48A, G77V, A99S
VL: B3 VL with N28S, D30S, A34S, K63R, E70Q, R95S, S96D, S97N, S98N, K112R
notes: Rabbit monoclonal IgG1; Tested as supernatant and as small batch purified antibody; also called MAGE-B2 (IJ15); anti-MAGEB2 antibody 1J15

Biological target: T1, Human MAGEB2 (Melanoma-associated …)
Assay: IHC on FFPE T98G cells (endogenous MAGEB2)
Description: (§1) FFPE samples were sectioned at 4 μm and mounted on positive charged glass slides. After mounting, paraffin sections were air-dried at room temperature. FFPE TMA samples were received as freshly sectioned and mounted on glass slides. The fully automated IHC assay was performed on a Discovery Ultra Stainer (Ventana Medical Systems, Tucson, AZ) using Ventana Anti-Rabbit HQ (cat #760-4815), Ventana Anti-HQ HRP (cat #760-4820), and Ventana Antibody Diluent with Casein (cat #760-219) (Ventana Medical Systems, Tucson, AZ). The slides were baked on the Discovery Ultra Stainer at 60° C. for 8 minutes, de-paraffinized with Ventana Discovery wash (cat #950-510) for 3 cycles (8 minutes each) at 69° C., and underwent cell conditioning (target retrieval) at 95° C. for 16 minutes (for cell arrays) or 32 minutes (tissues or TMAs) in CC1 buffer (cat #950-500). Following this, slides were incubated with Background Sniper (cat #BS966M, Biocare Medical, Pacheco, CA) in a Ventana Option Prep kit (cat #771-751) for 28 minutes, incubated with CM inhibitor (a part of the Ventana DAB kit cat #760-159) for 12 minutes, and incubated for 1 h at RT with MAGE-B2 antibody diluted with Ventana diluent with Casein in a Ventana Prep kit (cat #770-001) (working concentration at 0.1 μg/ml for cell pellet, or 1-5 ug/ml for tissues) or with a matched concentration of isotype control Rabbit IgG1 antibody. Following this, slides were incubated with the Ventana Anti-Rabbit HQ (cat #760-4815) for 28 minutes at RT, Ventana Anti-HQ HRP (cat #760-4820) for 28 minutes at RT, and signals detected with Ventana DAB chromogen kit (cat #760-159) for 5 minutes at RT. Slides were counterstained with Ventana Hematoxylin II (cat #5266726001) for 8 minutes and Ventana Bluing reagent (cat #526676900) for 4 minutes. Slides were coverslipped and digitized using an Aperio AT2 scanner (Leica Biosystems Inc, Buffalo Grove, IL).

Row | IHC % Frequency [%] | IHC Intensity | Binder
1 | 70 | 2 | B1
2 | 70 | 2 | B2
3 | 70 | 2 | B3
4 | 70 | 1 | B4

Biological target: T1, Human MAGEB2 (Melanoma-associated …)
Assay: IHC on FFPE U20S cells (endogenous MAGEB2)
Description: as §1

Row | IHC % Frequency [%] | IHC Intensity | Binder
5 | 70 | 2 | B1
6 | 60 | 2 | B2
7 | 60 | 2 | B3
8 | 50 | 1 | B4

Biological target: T1, Human MAGEB2 (Melanoma-associated …)
Assay: IHC on FFPE KMM-1 cells (endogenous MAGEB2)
Description: as §1

Row | IHC % Frequency [%] | IHC Intensity | Binder
9 | 70 | 1 | B1
10 | 70 | 1 | B2
11 | 70 | 2 | B3
12 | 70 | – | B4

Biological target: T1, Human MAGEB2 (Melanoma-associated …)
Assay: IHC on FFPE UM-UC-3 cells (endogenous MAGEB2)
Description: as §1

Row | IHC Intensity | Binder
13 | 0 | B1
14 | 0 | B3
15 | 0 | B4

Biological target: T2, human MAGEB6
Assay: IHC, FFPE CHO cells transfected with human MAGEB6
Description: as §1

Row | binding result | Binder
16 | no binding (tested: 0.1 µg/ml) | B1
17 | no binding (tested: 0.1 µg/ml) | B2
18 | no binding (tested: 0.1 µg/ml) | B3
19 | no binding (tested: 0.1 µg/ml) | B4

Biological target: T3, human MAGEA11
Assay: IHC, FFPE CHO cells transfected with human MAGEA11
Description: as §1

Row | binding result | Binder
20 | no binding (tested: 0.1 µg/ml) | B1
21 | no binding (tested: 0.1 µg/ml) | B2
22 | no binding (tested: 0.1 µg/ml) | B3
23 | no binding (tested: 0.1 µg/ml) | B4

Biological target: T4, human MAGEB17
Assay: IHC, FFPE CHO cells transfected with human MAGEB17
Description: as §1

Row | binding result | Binder
24 | no binding (tested: 0.1 µg/ml) | B1
25 | no binding (tested: 0.1 µg/ml) | B2
26 | no binding (tested: 0.1 µg/ml) | B3
27 | no binding (tested: 0.1 µg/ml) | B4
